Target: human epidermal growth factor receptor (EGFR), stably over-expressed on rat 9L gliosarcoma cells (human) (UniProt P00533)
Test: X-gal staining of live cells incubated with β-gal-labelled ligand complex

- percent of cells labelled: > 75%
Substance: EGF ligand-complex with full-length β-gal reporter (EGF-B-SA-B-β-gal)

Reference: paper PMC2835542
